The Ki is a measure of affinity in units of concentration, obtained from inhibition or displacement. Low readings indicate higher affinity, high ones lower affinity. By Kd is commonly meant the constant that tells how readily two partners part at equilibrium. Higher therefore signals lower affinity.

The results in this text go back to publication doi:10.1101/2024.06.26.600905 (bioRxiv, 2024).

Assay [1] deals with His6-SPAK CCT (mouse SPAK 459-556) (mouse) (UniProt Q9Z1W9). Put plainly: fluorescence polarisation.
Assay [2] has as its target NH3+-NLVGRF-[DAP-FAM]-VSPVPE-COO- fluorescent probe peptide (human). The assay can be described thus: fluorescence polarisation. A general note: Polarisation of emitted light reports the rotation of a fluorescent probe.
For assay [3], the target named is His6-SPAK CCT (mouse SPAK 459-556) (mouse) (UniProt Q9Z1W9). Put plainly: fluorescence polarisation. This is another data set of the same source.
For assay [4], the target named is T1, His6-OSR1 CCT (human OSR1 433-527) (human, UniProt O95747 433-527). Put plainly: fluorescence polarisation.
For assay [5], the target named is T1, His6-OSR1 CCT (human OSR1 433-527). The assay can be described thus: peptide or protein array.

Read-outs that look alike come from different tables or passages of the source. Where no end group is shown, it is not given here. [ ]: non-standard residue; d: D form. pY = N[C@@H](Cc1ccc(OP(=O)(O)O)cc1)C(=O)O; TOTD membrane = not defined here; pS = N[C@@H](COP(=O)(O)O)C(=O)O

T1 sequence (O95747 433-527): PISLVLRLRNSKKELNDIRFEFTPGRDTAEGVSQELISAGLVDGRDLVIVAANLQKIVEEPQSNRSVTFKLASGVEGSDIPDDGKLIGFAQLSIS

Molecule hWNK1 1253-1265 R1257A peptide … gave a fold decrease in affinity relative to wild type in assay [1] of 3.1 fold.
In assay [1], hWNK4 1012-1024 wild type peptide … registered a Ki of 7.2 µM.
On to “His6-OSR1 CCT (human OSR1 433-527) (from UniProt O95747 433-527) (domain or fragment)”, for which the equilibrium dissociation constant (Kd) in assay [2] was determined as 1.5 µM.
In assay [2], “purified SPAK CCT domain D477Q (domain or fragment)” yielded a fold decrease in affinity relative to wild type of 50 fold.
The molecule “His6-SPAK CCT (mouse SPAK 459-556) (from UniProt Q9Z1W9 459-556) (domain or fragment)” showed a dissociation constant (Kd) in assay [2] of 0.67 µM. That is a sub-micromolar value.

B1: hWNK1 1253-1265 wild type peptide NH3+-…-COO- (peptide)
peptide: H-SAGRRFIVSPVPE-OH
B1 returned an inhibitory constant (Ki) in assay [3] of 2.5 µM.

B2: hWNK1 1253-1265 wild type peptide NH3+-SAGRRFIVSPVPE-COO- (peptide)
peptide: H-SAGRRFIVSPVPE-OH
B2 came in with a Ki in assay [4] of 5.1 µM. That is a single-digit micromolar value.

B3: hWNK1 1253-1265 peptide, arginines replaced with histidine-histidine (peptide)
peptide: SAGHHFIVSPVPE
As to B3, the fold decrease in affinity relative to wild type in assay [1] was 7 fold; in assay [4], around 7 fold.

B4: hWNK1 1253-1265 peptide, first arginine of RRF to alanine (peptide)
peptide: SAGARFIVSPVPE
In the case of B4, the fold decrease in affinity relative to wild type in assay [1] is 1.5 fold; in assay [4] it was around 1.5 fold.

B5: hWNK1 1253-1265 R1257A peptide SAGRAFIVSPVPE (peptide)
peptide: SAGRAFIVSPVPE
In the case of B5, the “fold decrease in affinity relative to wild type” value in assay [4] is around 3.1 fold.

B6: hWNK1 1253-1265 peptide, arginines replaced with alanine-lysine (peptide)
peptide: SAGAKFIVSPVPE
With B6, the binding result in assay [4] was “binds”.

B7: hWNK1 1253-1265 peptide, arginines replaced with alanine-histidine (peptide)
peptide: SAGAHFIVSPVPE
For the molecule B7, in assay [4], the binding result is recorded as “binds”.

B8: hWNK1 1253-1265 peptide, arginines replaced with histidine-alanine (peptide)
peptide: SAGHAFIVSPVPE
As to B8, the fold decrease in affinity relative to wild type in assay [1] and in assay [4] was 11 fold throughout.

B9: hWNK1 1253-1265 peptide, arginines replaced with lysine-alanine (peptide)
peptide: SAGKAFIVSPVPE
Take B9: in assay [4], the binding result is reported as “binds”.

B10: hWNK1 1253-1265 peptide, arginines replaced with lysine-lysine (peptide)
peptide: SAGKKFIVSPVPE
Consider B10, for which the Ki in assay [1] is 4.2 µM; in assay [4], 16.3 µM.

B11: hWNK1 1253-1265 peptide, -3 glycine and -2 arginine to alanine-alanine (peptide)
peptide: SAAARFIVSPVPE
Consider B11, for which the binding result in assay [4] was “binds”.

B12: hWNK1 1253-1265 peptide, -3 glycine and -2 arginine to valine-alanine (peptide)
peptide: SAVARFIVSPVPE
Consider B12, for which, in assay [4], the binding result is given as “binds”.

B13: Cavin1 146-158 motif peptide (peptide)
peptide: LRRRNFKVMIYQD
With B13, in assay [4], the binding result is listed as “binds”.

B14: hWNK4 1012-1024 wild type peptide QLVGRFQVTSSKE on the peptide array membrane (peptide)
peptide: Ac-QLVGRFQVTSSKE-{TOTD membrane}
modifications: reading uncertain
Turning to B14, the binding result in assay [5] is “binds”.

B15: hWNK1 1253-1265 peptide phosphorylated on serine at the +3 position (peptide)
peptide: SAGRRFIV[pS]PVPE
For B15, the fold decrease in affinity relative to wild type in assay [3] is 2.5 fold; in assay [4], around 2.5 fold.

B16: p-Tyr156 Cavin1 peptide (Cavin1 146-158) (peptide)
peptide: LRRRNFKVMI[pY]QD
With B16, in assay [4], the binding result is given as “binds”.

B17: hWNK4 1012-1024 wild type peptide QLVGRFQVTSSKE (peptide)
peptide: QLVGRFQVTSSKE
B17 displayed a Ki in assay [4] of 12.9 µM.

B18: hWNK4 1012-1024 peptide, valine to isoleucine at the +2 position (peptide)
peptide: QLVGRFQITSSKE
For B18, the binding result in assay [4] is on record as “binds”.

B19: hWNK4 1012-1024 peptide, valine to leucine at the +2 position (peptide)
peptide: QLVGRFQLTSSKE
For B19, the binding result in assay [4] was “binds”.

B20: hWNK4 1012-1024 peptide, threonine to alanine at the +3 position (peptide)
peptide: QLVGRFQVASSKE
Regarding B20, in assay [4], the binding result was “binds”.

B21: hWNK4 1012-1024 peptide, glutamine to alanine at the +1 position (peptide)
peptide: QLVGRFAVTSSKE
With B21, the binding result in assay [4] is recorded as “binds”.

B22: hWNK4 1012-1024 peptide, glycine to serine at the -2 position (peptide)
peptide: QLVSRFQVTSSKE
B22: the binding result in assay [4] is “binds”.

B23: hWNK1 1253-1265 peptide, proline and valine to alanines at +4/+5 (peptide)
peptide: SAGRRFIVSAAPE
Turning to B23, in assay [4], the binding result was “binds”.
